molecular target: T1, human GSDMD-Renilla luciferase fusion (Homo sapiens, UniProt P57764); assay: co-IP; LUMIER assay: HEK293T co-transfected with VHH-HA and Renilla luciferase fusions; lysis in 50 mM Hepes-KOH pH 7.9, 150 mM NaCl, 2 mM EDTA, 0.5% Triton X-100, 5% glycerol; VHH-HA captured on anti-HA-coated plates for one hour; luminescence of co-purified Renilla luciferase normalised to lysate; details: partners not purified
T1 construct: human gasdermin D (GSDMD) fused to Renilla luciferase; A GSDMD 4 A fusion was tested as well; also called Renilla-fused bait protein human GSDMD; source: HEK293T, transfected (pcDNA3.1-based vector), in lysate
T1 sequence (P57764 whole entry, the tested form may be a part): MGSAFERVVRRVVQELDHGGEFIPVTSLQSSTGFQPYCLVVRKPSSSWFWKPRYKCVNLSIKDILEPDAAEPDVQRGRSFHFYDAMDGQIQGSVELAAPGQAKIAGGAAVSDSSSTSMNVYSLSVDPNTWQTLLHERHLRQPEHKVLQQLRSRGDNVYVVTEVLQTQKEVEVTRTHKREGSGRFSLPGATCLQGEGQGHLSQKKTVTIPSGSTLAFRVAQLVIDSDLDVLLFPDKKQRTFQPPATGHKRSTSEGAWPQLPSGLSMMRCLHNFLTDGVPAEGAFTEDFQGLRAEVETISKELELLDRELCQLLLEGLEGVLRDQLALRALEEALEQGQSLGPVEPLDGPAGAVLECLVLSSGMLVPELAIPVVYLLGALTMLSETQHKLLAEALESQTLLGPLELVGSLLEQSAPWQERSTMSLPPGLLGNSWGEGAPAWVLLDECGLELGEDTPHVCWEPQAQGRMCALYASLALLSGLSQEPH

Binder	binding result
VHH_(GSDMD-3)-HA (VHH, also called VHH-HA; source: HEK293T, transfected (pCAGGS VHH-HA), in lysate; not shown: HA, C-terminal, kept) VHH: QVQLVETGGGLVQPGGSLRLSCAASGFTLDIYNMGWFRQAPGKEREGVSCISSRYGTSTYYADSVKGRFTISRDNAKNTVYLQMNNLKPEDTAVYYCATVSWRFTTNQDVCLTPSVSGYWGQGTQVTVSS	binds
VHH_(GSDMD-1)-HA (VHH, also called VHH-HA; source: HEK293T, transfected (pCAGGS VHH-HA), in lysate; not shown: HA, C-terminal, kept) VHH: QVQLVESGGALVQPGGSLRLSCSASGFTFSKYLMSWYRQAPGKERELVATITTAGGNTNYADSVKGRFTISRDNAKNTVYLQMNSLKPEDTAVYYCKASGGTIRTVNETYWGQGTQVTVSS	binds
VHH_(GSDMD-5)-HA (VHH, also called VHH-HA; source: HEK293T, transfected (pCAGGS VHH-HA), in lysate; not shown: HA, C-terminal, kept) VHH: QVQLVETGGGLVQPGGSLRLSCAASGFVFSINPMNWYRQAPGKERELVAYISMRGSTTNYADSVKGRFIISRDNAKNTLYLQMNSLKPEDTAVYYCNAPSRSVWGQGTQVTVSS	binds
VHH_(GSDMD-2)-HA (VHH, also called VHH-HA; source: HEK293T, transfected (pCAGGS VHH-HA), in lysate; not shown: HA, C-terminal, kept) VHH: QVQLVESGGGLVQPGGSLRLSCVDSRSWINVYGANWYRQAPGKERELVAALTSGGTTNYADSVKGRFTISRDNAKNTVYLQMRDLKPEDTAVYYCNLERYTGSSVYPWGQGTQVTVSS	binds

molecular target: T2, GSDMD^NT (N-terminal domain of gasdermin D released by caspase cleavage) (Homo sapiens (endogenous, THP-1), UniProt P57764); assay: non-reducing SDS-PAGE and immunoblot; PMA-differentiated THP-1 macrophages expressing HA-tagged nanobodies, stimulated with MxiH for 1 h; lysates in SDS-PAGE buffer without reducing agent; immunoblot with anti-GSDMD; details: partners not purified
T2 construct: also called processed GSDMD^NT; source: endogenous, lysate of PMA-differentiated THP-1 macrophages stimulated with MxiH
T2 sequence (P57764 whole entry, looked up, the tested form may be a part): as the sequence (P57764 whole entry, the tested form may be a part) above

Binder	binding result
VHH_(GSDMD-1) with a C-terminal HA tag, expressed in THP-1 cells (VHH, Same nanobody as m2 and m11, other vector and host; also called VHH_(GSDMD-1)-HA; source: THP-1, lentiviral transduction, constitutive expression (pEF1α), in lysate; not shown: HA, C-terminal, kept) VHH: QVQLVESGGALVQPGGSLRLSCSASGFTFSKYLMSWYRQAPGKERELVATITTAGGNTNYADSVKGRFTISRDNAKNTVYLQMNSLKPEDTAVYYCKASGGTIRTVNETYWGQGTQVTVSS	binds
VHH_(GSDMD-2) with a C-terminal HA tag, expressed in THP-1 cells (VHH, Same nanobody as m3 and m12, other vector and host; also called VHH_(GSDMD-2)-HA; source: THP-1, lentiviral transduction, constitutive expression (pEF1α), in lysate; not shown: HA, C-terminal, kept) VHH: QVQLVESGGGLVQPGGSLRLSCVDSRSWINVYGANWYRQAPGKERELVAALTSGGTTNYADSVKGRFTISRDNAKNTVYLQMRDLKPEDTAVYYCNLERYTGSSVYPWGQGTQVTVSS	binds

molecular target: T3, His-SUMO-GSDMD (Homo sapiens, UniProt P57764); assay: ELISA; SUMO-GSDMD or SUMO in PBS immobilised on ELISA plates at 1 μg/mL overnight; HA-tagged nanobodies in 10% FBS/PBS, 10-fold dilution series from 100 nM to 1 pM; detected with anti-HA HRP and TMB; details: both partners purified
T3 construct: human gasdermin D (GSDMD), expressed from pET28 as His-SUMO-GSDMD; the recombinant protein is called full-length in the results; it was cleavable with the SUMO protease ULP1; also called gasdermin D; source: E. coli LOBSTR, purified (Ni-NTA, gel filtration); not shown: SUMO, N-terminal, kept
T3 sequence (P57764 whole entry): as the sequence (P57764 whole entry, the tested form may be a part) above

Binder	binding result
VHH_(GSDMD-3) with C-terminal HA-His6 (VHH, pHEN6-based periplasmic expression vector, small scale (HA-His6); also called HA-His-tagged nanobody; source: E. coli WK6, periplasmic extract, purified (Ni-NTA, desalting); not shown: HA, C-terminal, kept; His6, C-terminal, kept) VHH: QVQLVETGGGLVQPGGSLRLSCAASGFTLDIYNMGWFRQAPGKEREGVSCISSRYGTSTYYADSVKGRFTISRDNAKNTVYLQMNNLKPEDTAVYYCATVSWRFTTNQDVCLTPSVSGYWGQGTQVTVSS	binds
VHH_(GSDMD-4) with C-terminal HA-His6 (VHH, pHEN6-based periplasmic expression vector, small scale (HA-His6); also called HA-His-tagged nanobody; source: E. coli WK6, periplasmic extract, purified (Ni-NTA, desalting); not shown: HA, C-terminal, kept; His6, C-terminal, kept) VHH: QVQLVESGGGLVQPGGSLRLSCAASGFTLDRHAIAWFRQAPGLEREGVVCTSSSGAITNTADSVKGRFTISRDDAKNTVYLQMNSLKPEDTAIYYCAVRELWTVQPICEPRPRAYAYWGQGTQVTVSS	binds
VHH_(GSDMD-1) with C-terminal HA-His6 (VHH, pHEN6-based periplasmic expression vector, small scale (HA-His6); also called HA-His-tagged nanobody; source: E. coli WK6, periplasmic extract, purified (Ni-NTA, desalting); not shown: HA, C-terminal, kept; His6, C-terminal, kept) VHH: QVQLVESGGALVQPGGSLRLSCSASGFTFSKYLMSWYRQAPGKERELVATITTAGGNTNYADSVKGRFTISRDNAKNTVYLQMNSLKPEDTAVYYCKASGGTIRTVNETYWGQGTQVTVSS	binds
VHH_(GSDMD-5) with C-terminal HA-His6 (VHH, pHEN6-based periplasmic expression vector, small scale (HA-His6); also called HA-His-tagged nanobody; source: E. coli WK6, periplasmic extract, purified (Ni-NTA, desalting); not shown: HA, C-terminal, kept; His6, C-terminal, kept) VHH: QVQLVETGGGLVQPGGSLRLSCAASGFVFSINPMNWYRQAPGKERELVAYISMRGSTTNYADSVKGRFIISRDNAKNTLYLQMNSLKPEDTAVYYCNAPSRSVWGQGTQVTVSS	binds
VHH_(GSDMD-2) with C-terminal HA-His6 (VHH, pHEN6-based periplasmic expression vector, small scale (HA-His6); also called HA-His-tagged nanobody; source: E. coli WK6, periplasmic extract, purified (Ni-NTA, desalting); not shown: HA, C-terminal, kept; His6, C-terminal, kept) VHH: QVQLVESGGGLVQPGGSLRLSCVDSRSWINVYGANWYRQAPGKERELVAALTSGGTTNYADSVKGRFTISRDNAKNTVYLQMRDLKPEDTAVYYCNLERYTGSSVYPWGQGTQVTVSS	binds
VHH_(GSDMD-6) with C-terminal HA-His6 (VHH, pHEN6-based periplasmic expression vector, small scale (HA-His6); also called HA-His-tagged nanobody; source: E. coli WK6, periplasmic extract, purified (Ni-NTA, desalting); not shown: HA, C-terminal, kept; His6, C-terminal, kept) VHH: QVQLVETGGGLVQPGGSLRLSCTASGFIFSANQMNWVRQAPGKGLEWLSGISTRGDTTSYADSVKGRFTISRDNAKNTLYLQMNSLQPDDTAVYFCARVCIRGPEPKLRCDDWGQGTQVTVSS	binds

Source: PMC11427689, “Antagonistic nanobodies implicate mechanism of GSDMD pore formation and potential therapeutic application” (Nature Communications, 2024)
